{"source": "paper doi:10.1101/2022.02.15.480489", "about": "(bioRxiv, 2022)", "biological_target": "the molecule itself", "assay": "fluorescence correlation spectroscopy"}
{"protein": "Ana2-mNG (Ana2 tagged with monomeric NeonGreen at the C-terminus, CRISPR/Cas9 knock-in at the endogenous locus) (natural protein) MFVPETEDMLPRLAPRPSAAVPMGHTNEIIGPTVPEVSILFGQPPQDPQMQPQQPNHAHQESSPRAAPTFASWKKQMLPRVNFSPILATELGPRTAPSSNSPCSSKEYQVMPRDRNYASDAQQTTNHMNCNAGGYNAEPKQQAYQSRRLSSSSNADVLTICAGTQTDPFNPSPPRKSLPQVVYSDIDVSNLANKSDLAALVSLVESVRHEQQQLRNLCEMILEQQQRAKPEAISKASSTTGTQCDILTTNQAGRRLSPIMQDYIAEEEEPLPPPQARVIPQFPSPRPHPPIAQSTGYRANTPQAKRIPQLAKPNTEKSMVMNELALKYLRQPVDELMKDMRLGASPKSPNPEPLRPIDNIGHAQSPNDISNASYKYLKKYRLLPEEQLEPVCPQSPMAATAPSPHIQLDLENIRNQPKLL", "values": [{"measurement": "stoichiometry N", "result": "~2"}]}
{"protein": "mNG-Ana2 (Ana2 tagged with monomeric NeonGreen at the N-terminus, CRISPR/Cas9 knock-in at the endogenous locus) (natural protein) MFVPETEDMLPRLAPRPSAAVPMGHTNEIIGPTVPEVSILFGQPPQDPQMQPQQPNHAHQESSPRAAPTFASWKKQMLPRVNFSPILATELGPRTAPSSNSPCSSKEYQVMPRDRNYASDAQQTTNHMNCNAGGYNAEPKQQAYQSRRLSSSSNADVLTICAGTQTDPFNPSPPRKSLPQVVYSDIDVSNLANKSDLAALVSLVESVRHEQQQLRNLCEMILEQQQRAKPEAISKASSTTGTQCDILTTNQAGRRLSPIMQDYIAEEEEPLPPPQARVIPQFPSPRPHPPIAQSTGYRANTPQAKRIPQLAKPNTEKSMVMNELALKYLRQPVDELMKDMRLGASPKSPNPEPLRPIDNIGHAQSPNDISNASYKYLKKYRLLPEEQLEPVCPQSPMAATAPSPHIQLDLENIRNQPKLL", "values": [{"measurement": "stoichiometry N", "result": "~2"}]}
